T1: human (Homo sapiens) CD37 (human (Homo sapiens), UniProt P11049 1-281)
T1 construct: Full-length protein on cells: endogenous on Daudi cells, Raji cells and B cells in human blood; also called Leukocyte Antigen CD37; GP52-40
T1 sequence: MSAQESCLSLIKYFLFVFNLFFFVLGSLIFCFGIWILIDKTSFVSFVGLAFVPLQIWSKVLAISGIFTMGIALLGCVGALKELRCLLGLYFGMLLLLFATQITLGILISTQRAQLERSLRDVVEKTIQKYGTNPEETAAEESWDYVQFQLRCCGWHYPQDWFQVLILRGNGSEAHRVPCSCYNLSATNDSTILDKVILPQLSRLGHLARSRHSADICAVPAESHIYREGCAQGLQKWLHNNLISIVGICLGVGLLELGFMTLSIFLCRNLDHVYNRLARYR

T2: cynomolgus monkey (Macaca fascicularis) CD37 (cynomolgus monkey (Macaca fascicularis), UniProt P11049 1-281 (human entry))
T2 construct: also called mfCD37; Cynomolgus CD37
T2 chain: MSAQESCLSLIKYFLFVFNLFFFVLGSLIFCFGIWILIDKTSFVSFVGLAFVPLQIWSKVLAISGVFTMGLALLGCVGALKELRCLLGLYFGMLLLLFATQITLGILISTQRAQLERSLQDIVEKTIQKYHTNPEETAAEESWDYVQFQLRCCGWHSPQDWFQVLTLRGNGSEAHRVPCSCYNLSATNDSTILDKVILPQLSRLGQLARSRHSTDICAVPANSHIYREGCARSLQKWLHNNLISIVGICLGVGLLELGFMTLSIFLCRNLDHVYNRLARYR


Key:
[1] = biological target: T1, human (Homo sapiens) CD37; assay: flow cytometry on Daudi cells
Protocol: (§1) Binding to cell surface expressed CD37 (Daudi cells, CHO cells expressing cynomolgus CD37) was determined by flow cytometry. Cells, resuspended in RPMI containing 0.2% BSA, were seeded at 100,000 cells/well in polystyrene 96 well round-bottom plates (Greiner bio-one Cat #650101) and centrifuged for 3 minutes at 300×g, 4° C. Serial dilutions (0.003-10 μg/mL final antibody concentration in 3.33× serial dilutions) of CD37 or control antibodies were added and cells were incubated for 30 minutes at 4° C. Plates were washed/centrifuged twice using FACS buffer (PBS/0.1% BSA/0.01% Na-Azide). Next, cells were incubated for 30 minutes at 4° C. with R-Phycoerythrin (PE)-conjugated goat-anti-human IgG F(ab′)2 (Jackson ImmunoResearch Laboratories, Inc., West Grove, Pa.; cat #: 109-116-098) diluted 1/100 in PBS/0.1% BSA/0.01% Na-Azide. Cells were washed/centrifuged twice using FACS buffer, resuspended in 30 μL FACS buffer and analyzed by determining mean fluorescent intensities using an Intellicyt iQue™ screener (Westburg). Binding curves were generated using non-linear regression (sigmoidal dose-response with variable slope) analyses within GraphPad Prism V6.04 software (GraphPad Software, Sand Diego, Calif., USA).

[2] = biological target: T2, cynomolgus monkey (Macaca fascicularis) …; assay: flow cytometry on CHO cells expressing cynomolgus monkey CD37
Protocol: as §1
Binding to CHO cells expressing cynomolgus monkey CD37 was determined by flow cytometry using a method as described above.

[3] = biological target: T1, human (Homo sapiens) CD37; assay: flow cytometry, A488-labeled antibody on B cells in human whole blood; average of 6 donors
Protocol: (§2) Cells were pelleted and washed twice in 150 μL FACS buffer and resuspended in 150 μL TO-PRO-3 (end concentration 0.2 μM; Molecular Probes, cat no. T3605). Samples were measured by flow cytometry using an LSRFortessa flow cytometer. Binding is expressed as geometric mean of A488 fluorescence intensity for viable TO-PRO-3⁻/CD14⁻/CD19⁺ B-cells (human) or viable TO-PRO-3⁻/CD14⁻/CD19+/CD20+ B-cells (cynomolgus monkey). Log-transformed data were analyzed using best-fit values of a non-linear dose-response fit in GraphPad PRISM.

[4] = biological target: T2, cynomolgus monkey (Macaca fascicularis) …; assay: flow cytometry, A488-labeled antibody on B cells in cynomolgus monkey whole blood; average of 4 animals
Protocol: as §2

Binder	binding result [1]	binding result [2]	EC50 [3]	EC50 [4]
IgG1-005-H1L2-E430G (antibody, IgG1,kappa with E430G (EU numbering)) heavy: not shown light: AYDMTQSPSSVSASVGDRVTITCQASQSISNWLAWYQQKPGKAPKQLIYAASTLASGVPSRFKGSGSGTDFTLTISSLQPEDFATYYCQQGYSNSNIDNTFGGGTKVEIKRTVAAPSVFIFPPSDEQLKSGTASVVCLLNNFYPREAKVQWKVDNALQSGNSQESVTEQDSKDSTYSLSSTLTLSKADYEKHKVYACEVTHQGLSSPVTKSFNRGEC	binds	binds		
IgG1-005-H1L2 (antibody, Humanized, IgG1,kappa) heavy: not shown light: AYDMTQSPSSVSASVGDRVTITCQASQSISNWLAWYQQKPGKAPKQLIYAASTLASGVPSRFKGSGSGTDFTLTISSLQPEDFATYYCQQGYSNSNIDNTFGGGTKVEIKRTVAAPSVFIFPPSDEQLKSGTASVVCLLNNFYPREAKVQWKVDNALQSGNSQESVTEQDSKDSTYSLSSTLTLSKADYEKHKVYACEVTHQGLSSPVTKSFNRGEC	binds			
IgG1-37.3 (antibody, IgG1,kappa) heavy: not shown light: DIQMTQSPASLSVSVGETVTITCRASENIRSNLAWYQQKQGKSPQLLVNVATNLADGVPSRFSGSGSGTQYSLKINSLQSEDFGTYYCQHYWGTTWTFGGGTKLEIKRTVAAPSVFIFPPSDEQLKSGTASVVCLLNNFYPREAKVQWKVDNALQSGNSQESVTEQDSKDSTYSLSSTLTLSKADYEKHKVYACEVTHQGLSSPVTKSFNRGEC	binds			
IgG1-37.3-E430G (antibody, IgG1,kappa with E430G (EU numbering)) heavy: not shown light: DIQMTQSPASLSVSVGETVTITCRASENIRSNLAWYQQKQGKSPQLLVNVATNLADGVPSRFSGSGSGTQYSLKINSLQSEDFGTYYCQHYWGTTWTFGGGTKLEIKRTVAAPSVFIFPPSDEQLKSGTASVVCLLNNFYPREAKVQWKVDNALQSGNSQESVTEQDSKDSTYSLSSTLTLSKADYEKHKVYACEVTHQGLSSPVTKSFNRGEC	binds			
IgG1-G28.1 (antibody, IgG1,kappa) heavy: not shown light: DIQMTQSPASLSASVGETVTITCRTSENVYSYLAWYQQKQGKSPQLLVSFAKTLAEGVPSRFSGSGSGTQFSLKISSLQPEDSGSYFCQHHSDNPWTFGGGTELEIKRTVAAPSVFIFPPSDEQLKSGTASVVCLLNNFYPREAKVQWKVDNALQSGNSQESVTEQDSKDSTYSLSSTLTLSKADYEKHKVYACEVTHQGLSSPVTKSFNRGEC	binds	no binding (tested: 0.003-10 µg/mL)		
IgG1-G28.1-E430G (antibody, IgG1,kappa with E430G (EU numbering)) heavy: not shown light: DIQMTQSPASLSASVGETVTITCRTSENVYSYLAWYQQKQGKSPQLLVSFAKTLAEGVPSRFSGSGSGTQFSLKISSLQPEDSGSYFCQHHSDNPWTFGGGTELEIKRTVAAPSVFIFPPSDEQLKSGTASVVCLLNNFYPREAKVQWKVDNALQSGNSQESVTEQDSKDSTYSLSSTLTLSKADYEKHKVYACEVTHQGLSSPVTKSFNRGEC	binds	no binding (tested: 0.003-10 µg/mL)		
IgG1-016-H5L2-E430G (antibody, IgG1,kappa with E430G (EU numbering)) heavy: not shown light: DVVMTQSPSTLSASVGDRVTITCQASQNIDSNLAWYQQKPGKAPKFLIYYASNLPFGVPSRFKGSGSGTEFTLTISSLQPDDFATYYCQCADVGSTYVAAFGGGTKVEIKRTVAAPSVFIFPPSDEQLKSGTASVVCLLNNFYPREAKVQWKVDNALQSGNSQESVTEQDSKDSTYSLSSTLTLSKADYEKHKVYACEVTHQGLSSPVTKSFNRGEC	binds	binds		
bsIgG1-016-H5L2-LC90S-F405L-E430Gx010-H5L2-K409R-E430G (bispecific antibody) heavy 1: not shown light 1: DVVMTQSPSTLSASVGDRVTITCQASQNIDSNLAWYQQKPGKAPKFLIYYASNLPFGVPSRFKGSGSGTEFTLTISSLQPDDFATYYCQSADVGSTYVAAFGGGTKVEIKRTVAAPSVFIFPPSDEQLKSGTASVVCLLNNFYPREAKVQWKVDNALQSGNSQESVTEQDSKDSTYSLSSTLTLSKADYEKHKVYACEVTHQGLSSPVTKSFNRGEC heavy 2: not shown light 2: AYDMTQSPSTLSASVGDRVTITCQASQNIIDYLAWYQQKPGKAPKLLIHKASTLASGVPSRFKGSGSGTEFTLTISSLQPDDFATYYCQQGYSNSNIDNTFGGGTKVEIKRTVAAPSVFIFPPSDEQLKSGTASVVCLLNNFYPREAKVQWKVDNALQSGNSQESVTEQDSKDSTYSLSSTLTLSKADYEKHKVYACEVTHQGLSSPVTKSFNRGEC			0.85 µg/mL	0.63 µg/mL
IgG1-016-H5L2-F405L-E430G (antibody, IgG1,kappa with F405L and E430G (EU numbering)) heavy: not shown light: DVVMTQSPSTLSASVGDRVTITCQASQNIDSNLAWYQQKPGKAPKFLIYYASNLPFGVPSRFKGSGSGTEFTLTISSLQPDDFATYYCQCADVGSTYVAAFGGGTKVEIKRTVAAPSVFIFPPSDEQLKSGTASVVCLLNNFYPREAKVQWKVDNALQSGNSQESVTEQDSKDSTYSLSSTLTLSKADYEKHKVYACEVTHQGLSSPVTKSFNRGEC	binds			
IgG1-016-H5L2-LC90S-F405L-E430G (antibody, V domains shown, IgG1,kappa; light chain C90S, heavy chain F405L and E430G (EU numbering)) VH: EVQLVESGGGLVQPGGSLRLSCAASGFSLSNYNMGWVRQAPGKGLEWVSVIDASGTTYYATWAKGRFTISRDNSKNTLYLQMNSLRAEDTATYYCARELLYFGSSYYDLWGQGTLVTVSS VL: DVVMTQSPSTLSASVGDRVTITCQASQNIDSNLAWYQQKPGKAPKFLIYYASNLPFGVPSRFKGSGSGTEFTLTISSLQPDDFATYYCQSADVGSTYVAAFGGGTKVEIKR	binds			
IgG1-016-H5L2 (antibody, Humanized, IgG1,kappa) heavy: not shown light: DVVMTQSPSTLSASVGDRVTITCQASQNIDSNLAWYQQKPGKAPKFLIYYASNLPFGVPSRFKGSGSGTEFTLTISSLQPDDFATYYCQCADVGSTYVAAFGGGTKVEIKRTVAAPSVFIFPPSDEQLKSGTASVVCLLNNFYPREAKVQWKVDNALQSGNSQESVTEQDSKDSTYSLSSTLTLSKADYEKHKVYACEVTHQGLSSPVTKSFNRGEC	binds			
IgG1-010-H5L2 (antibody, Humanized, IgG1,kappa) heavy: not shown light: AYDMTQSPSTLSASVGDRVTITCQASQNIIDYLAWYQQKPGKAPKLLIHKASTLASGVPSRFKGSGSGTEFTLTISSLQPDDFATYYCQQGYSNSNIDNTFGGGTKVEIKRTVAAPSVFIFPPSDEQLKSGTASVVCLLNNFYPREAKVQWKVDNALQSGNSQESVTEQDSKDSTYSLSSTLTLSKADYEKHKVYACEVTHQGLSSPVTKSFNRGEC	binds			
IgG1-010-H5L2-E430G (antibody, IgG1,kappa with E430G (EU numbering)) heavy: not shown light: AYDMTQSPSTLSASVGDRVTITCQASQNIIDYLAWYQQKPGKAPKLLIHKASTLASGVPSRFKGSGSGTEFTLTISSLQPDDFATYYCQQGYSNSNIDNTFGGGTKVEIKRTVAAPSVFIFPPSDEQLKSGTASVVCLLNNFYPREAKVQWKVDNALQSGNSQESVTEQDSKDSTYSLSSTLTLSKADYEKHKVYACEVTHQGLSSPVTKSFNRGEC	binds	binds		
IgG1-004-H5L2 (antibody) heavy: not shown light: AQVLTQSPSPLSASVGDRVTITCQASQSVYNSQNLAWYQQKPGKAPKLLIYEASKLASGVPSRFKGSGSGTEFTLTISSLQPDDFATYYCQGEFSCISADCTAFGGGTKVEIKRTVAAPSVFIFPPSDEQLKSGTASVVCLLNNFYPREAKVQWKVDNALQSGNSQESVTEQDSKDSTYSLSSTLTLSKADYEKHKVYACEVTHQGLSSPVTKSFNRGEC	binds			
IgG1-004-H5L2-E430G (antibody, IgG1,kappa with E430G (EU numbering)) heavy: not shown light: AQVLTQSPSPLSASVGDRVTITCQASQSVYNSQNLAWYQQKPGKAPKLLIYEASKLASGVPSRFKGSGSGTEFTLTISSLQPDDFATYYCQGEFSCISADCTAFGGGTKVEIKRTVAAPSVFIFPPSDEQLKSGTASVVCLLNNFYPREAKVQWKVDNALQSGNSQESVTEQDSKDSTYSLSSTLTLSKADYEKHKVYACEVTHQGLSSPVTKSFNRGEC	binds	binds		
